Experimental data reported in patent US20090291088A1, “THERAPEUTIC COMBINATIONS OF ANTI-IGF-1R ANTIBODIES AND OTHER COMPOUNDS” (Biogen Idec MA Inc., priority 2008, published 2009).
Numbering of substitutions follows the chain as printed.

B1: M14-C03: anti-IGF-1R antibody, allosteric blocker of IGF-1 and IGF-2 (antibody, V domains shown)
VH: EVQLLESGGGLVQPGGSLRLSCAASGFTFSKYMMSWVRQAPGKGLEWVSYISPSGGLTWYADSVKGRFTISRDNSKNTLYLQMNSLRAEDTAVYYCARDGARGYGMDVWGQGTTVTVSS
VL: DIQMTQSPATLSLSPGERATLSCRASQSVSSYLAWYQQKPGQAPRLLIYDASNRATGIPARFSGSGSGTDFTLTISSLEPEDFAVYYCQQRSNWPPEVTFGPGTKVDIK
modifications: Antibody variable heavy chain sequence; Antibody variable light chain sequence
B2: 20C8.3B8: murine anti-human IGF-1R monoclonal antibody from hybridoma; VH SEQ ID NO:43, VL SEQ ID NO:103 (antibody, V domains shown)
VH: DVQLQESGPDLVKPSQSLSLTCTVTGYSITSGYSWHWIRQFPGNKLEWMGYIHYSGGTNYNPSLKSRISITRDTSKNQFFLQLNSVTTEDTATYYCARSGYGYRSAYYFDYWGQGTTVTVSS
VL: DIVLTQSPASLAVSLGQRATISCRASKSVSTSAYSYMHWYQQKPGQPPKLLIYLASNLESGVPARFSGSGSGTDFTLNIHPVEEEDAATYYCQHSRELPYTFGGGTKLEIK
modifications: Antibody variable heavy chain sequence; Antibody variable light chain sequence
B3: Fab M12-E01: human anti-human IGF-1R Fab from phage display library; VH SEQ ID NO:4, VL SEQ ID NO:68 (antibody, V domains shown)
VH: EVQLLESGGGLVQPGGSLRLSCAASGFTFSPYSMLWVRQAPGKGLEWVSSIGSSGGSTRYADSVKGRFTISRDNSKNTLYLQMNSLRAEDTAMYYCARVRGILHYDILIGRNLYYYYMDVWGKGTTVTVSS
VL: QYELTQPPSVSEAPRQRVTISCSGSSSNIGNNAINWYQQLPGKPPKLLIYYDDLLPSGVSDRFSGSKSGTSGSLAISGLQSEDEADYYCAAWDDNLNGVIFGGGTKLTVL
modifications: Antibody variable heavy chain sequence; Antibody variable light chain sequence
B4: 20D8.24B11: murine anti-human IGF-1R monoclonal antibody from hybridoma; VH SEQ ID NO:53, VL SEQ ID NO:103 (antibody, V domains shown)
VH: B2 VH with V118L
VL: B2 VL
modifications: Antibody variable heavy chain sequence; Antibody variable light chain sequence

Key:
[1] = biological target: T1, IGF-1R (Homo sapiens, UniProt P08069); experiment: Ligand blocking assay (RIA): 125I-IGF-1 / 125I-IGF-2 binding to immobilized IGF-1R
T1 construct: human IGF-1R(1-903)-Fc (denoted hIGF-1R-Fc, generated by Biogen Idec)
In short: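 Recombinant His-tagged IGF-1R or IGF-1R-Fc coated at 250 ng/well (or IGF-1R-Fc captured via anti-human IgG); antibody or Fab preincubated 45 min at room temperature, then 100,000 cpm [125I]rhIGF-1 or rhIGF-2 added for 1 h. Bound radioactivity gamma-counted; % inhibition relative to buffer-only wells.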

[2] = biological target: T2, IGF-1R phosphorylation (Homo sapiens, UniProt P08069); experiment: Inhibition of IGF-1 and IGF-2 mediated IGF-1R phosphorylation in MCF-7 cells (ELISA); format: cell-based; conditions: for Inhibition of IGF-1R Phosphorylation IGF-1 / Inhibition of IGF-1R Phosphorylation IGF-2: Fabs, MCF-7; for Inhibition of IGF-1R Phosphorylation IGF-1: IGF-1 stimulated; for Inhibition of IGF-1R Phosphorylation IGF-2: IGF-2 stimulated; for Inhibition of IGF-1R.pTyr IGF-1 / Inhibition of IGF-1R.pTyr IGF-2: murine monoclonal antibodies
T2 construct: wild type IGF-1R expressed on MCF-7 tumor cells; endogenous in cells; host or cells: MCF-7
In short: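 Serum-starved MCF-7 cells were preincubated 1 h with antibodies (Fabs at 200, 20, 2 nM; mAbs at 67, 6.7, 0.67 nM) at room temperature or 37 °C, then stimulated with IGF-1 or IGF-2. Phospho-IGF-1R in lysates was captured by ELISA and detected with anti-phosphotyrosine 4G10 (OD450); % inhibition over ligand control.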

| Molecule | IGF Blocking IGF-2 ([1]; Fabs, 125I-IGF-2) | Inhibition of IGF-1R Phosphorylation IGF-1 [2] | Inhibition of IGF-1R Phosphorylation IGF-2 [2] | IGF Blocking IGF-1 ([1]; murine monoclonal antibodies) | IGF Blocking IGF-2 ([1]; murine monoclonal antibodies) | Inhibition of IGF-1R.pTyr IGF-1 [2] | Inhibition of IGF-1R.pTyr IGF-2 [2] |
| --- | --- | --- | --- | --- | --- | --- | --- |
| B1 | + (>30%@10ug/ml) | ++ (>30%@1ug/ml) | ++ (>30%@1ug/ml) | – | – | – | – |
| B2 | – | – | – | +++ (>40%@0.1 μg/ml) | +++ (>40%@0.1 μg/ml) | +++ (>30%@0.1 μg/ml) | ++ (>30%@1 μg/ml) |
| B3 | ++ (>30%@1ug/ml) | ++ (>30%@1ug/ml) | + (>30%@10 ug/ml) | – | – | – | – |
| B4 | – | – | – | +++ (>40%@0.1 μg/ml) | +++ (>40%@0.1 μg/ml) | +++ (>30%@0.1 μg/ml) | ++ (>30%@1 μg/ml) |
